Experimental data from patent publication US20030215453A1.

How the values were obtained:
[1] = target: VpreB1 protein (Homo sapiens (Human)) (UniProt P12018); experiment: flow cytometry, 1 ug FITC-conjugated antibody on 1x10^6 GA-10 cells (endogenous VpreB1)
[2] = target: VpreB1 protein (Homo sapiens (Human)) (UniProt P12018); experiment: flow cytometry, 1 ug FITC-conjugated antibody on 1x10^6 CA46 cells (endogenous VpreB1)
[3] = target: VpreB1 protein (Homo sapiens (Human)) (UniProt P12018); experiment: flow cytometry, 1 ug FITC-conjugated antibody on 1x10^6 HT cells (no detectable VpreB1 mRNA in Table 1; in effect a VpreB1-negative line)

Sequence of UniProt P12018 (P12018 20-145 limits assumed): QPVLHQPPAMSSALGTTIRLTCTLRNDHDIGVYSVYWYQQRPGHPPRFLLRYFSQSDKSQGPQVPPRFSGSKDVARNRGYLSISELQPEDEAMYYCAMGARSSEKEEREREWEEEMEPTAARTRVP

% of cells surface labeled (gate M1) [1]: 91%
% of cells surface labeled (gate M1) [2]: 69%
% of cells surface labeled (gate M1) [3]: 3%
Substance: FITC-conjugated anti-VpreB1 monoclonal antibody (Serotec, Raleigh, N.C.)
